Experimental data published in US8383386.

T1: factor Va, P12259
T1 chain 1: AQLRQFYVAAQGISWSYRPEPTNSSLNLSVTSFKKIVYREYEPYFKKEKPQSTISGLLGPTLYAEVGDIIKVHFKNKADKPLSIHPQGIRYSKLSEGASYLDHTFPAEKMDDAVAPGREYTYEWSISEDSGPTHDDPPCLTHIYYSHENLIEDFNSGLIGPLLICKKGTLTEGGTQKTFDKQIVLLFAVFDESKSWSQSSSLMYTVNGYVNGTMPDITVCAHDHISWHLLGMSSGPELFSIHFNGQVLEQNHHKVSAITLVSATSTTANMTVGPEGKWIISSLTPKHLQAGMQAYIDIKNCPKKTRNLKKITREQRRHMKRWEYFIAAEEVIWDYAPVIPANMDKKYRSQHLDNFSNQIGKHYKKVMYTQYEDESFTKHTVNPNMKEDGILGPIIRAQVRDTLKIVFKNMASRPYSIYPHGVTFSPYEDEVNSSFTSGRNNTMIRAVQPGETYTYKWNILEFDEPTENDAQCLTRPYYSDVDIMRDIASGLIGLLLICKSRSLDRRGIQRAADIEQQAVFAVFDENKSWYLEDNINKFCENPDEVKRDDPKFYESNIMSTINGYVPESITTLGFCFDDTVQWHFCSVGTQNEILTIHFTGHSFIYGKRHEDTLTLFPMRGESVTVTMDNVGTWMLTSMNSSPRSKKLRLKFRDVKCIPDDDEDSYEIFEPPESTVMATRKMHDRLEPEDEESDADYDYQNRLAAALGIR
T1 chain 2: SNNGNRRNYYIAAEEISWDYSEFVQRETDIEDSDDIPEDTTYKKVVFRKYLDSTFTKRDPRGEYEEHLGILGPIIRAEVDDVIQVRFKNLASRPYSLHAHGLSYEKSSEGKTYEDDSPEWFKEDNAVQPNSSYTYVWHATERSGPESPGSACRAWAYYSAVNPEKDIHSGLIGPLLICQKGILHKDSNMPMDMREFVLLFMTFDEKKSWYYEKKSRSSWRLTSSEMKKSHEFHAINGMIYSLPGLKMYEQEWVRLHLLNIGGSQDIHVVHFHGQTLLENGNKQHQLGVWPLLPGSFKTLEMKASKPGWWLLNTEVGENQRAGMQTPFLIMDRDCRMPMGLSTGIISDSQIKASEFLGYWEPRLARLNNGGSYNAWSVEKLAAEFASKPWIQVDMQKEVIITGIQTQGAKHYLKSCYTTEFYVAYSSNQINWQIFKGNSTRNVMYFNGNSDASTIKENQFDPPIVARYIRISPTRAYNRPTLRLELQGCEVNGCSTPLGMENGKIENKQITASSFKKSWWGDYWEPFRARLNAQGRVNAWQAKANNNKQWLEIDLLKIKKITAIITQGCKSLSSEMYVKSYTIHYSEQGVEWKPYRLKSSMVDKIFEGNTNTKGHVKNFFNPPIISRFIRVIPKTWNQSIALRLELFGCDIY

B1: recombinant factor Xa variant Val17→Ala (protein)
chain 1: ANSFLEEMKKGHLERECMEETCSYEEAREVFEDSDKTNEFWNKYKDGDQCETSPCQNQGKCKDGLGEYTCTCLEGFEGKNCELFTRKLCSLDNGDCDQFCHEEQNSVVCSCARGYTLADNGKACIPTGPYPCGKQTLER
chain 2: IAGGQECKDGECPWQALLINEENEGFCGGTILSEFYILTAAHCLYQAKRFKVRVGDRNTEQEEGGEAVHEVEVVIKHNRFTKETYDFDIAVLRLKTPITFRMNVAPACLPERDWAESTLMTQKTGIVSGFGRTHEKGRQSTRLKMLEVPYVDRNSCKLSSSFIITQNMFCAGYDTKQEDACQGDSGGPHVTRFKDTYFVTGIVSWGEGCARKGKYGIYTKVTAFLKWIDRSMKTRGLPKAKSHAPEVITSSPLK

Experiments:
[1] = target: factor Va (UniProt P12259)
[2] = target: T1, factor Va, P12259

| Molecule | Km for peptidyl substrates after assembly into prothrombinase [1] | Km for peptidyl substrates after assembly into prothrombinase [2] |
| --- | --- | --- |
| recombinant factor Xa variant Ile16→Gly | even the Km value for I235G was almost completely restored (3-fold increased compared to wild-type FXa) when assembled in prothrombinase |  |
| B1 |  | the assembly of FXaI235L and FXaV236A into prothrombinase almost completely restored the Km for peptidyl substrates |
